# Measured values: patent publication US11833164B2, “Methods of treating Fabry disease in patients having a mutation in the GLA gene” (Amicus Therapeutics, Inc., priority 2019, dated 2023)
# Substitutions are numbered along the chain they refer to. Names and notes keep the numbering of the source.
# B1: A370P (protein)
# chain: MQLRNPELHLGCALALRFLALVSWDIPGARALDNGLARTPTMGWLHWERFMCNLDCQEEPDSCISEKLFMEMAELMVSEGWKDAGYEYLCIDDCWMAPQRDSEGRLQADPQRFPHGIRQLANYVHSKGLKLGIYADVGNKTCAGFPGSFGYYDIDAQTFADWGVDLLKFDGCYCDSLENLADGYKHMSLALNRTGRSIVYSCEWPLYMWPFQKPNYTEIRQYCNHWRNFADIDDSWKSIKSILDWTSFNQERIVDVAGPGGWNDPDMLVIGNFGLSWNQQVTQMALWAIMAAPLFMSNDLRHISPQAKALLQDKDVIAINQDPLGKQGYQLRQGDNFEVWERPLSGLAWAVAMINRQEIGGPRSYTIAVPSLGKGVACNPACFITQLLPVKRKLGFYEWTSRLRSHINPTGTVLLQLENTMQMSLKDLL
# B2: K374R (protein)
# chain: B1 chain with P370A, K374R
# B3: V376G (protein)
# chain: B1 chain with P370A, V376G
# B4: A370T (protein)
# chain: B1 chain with P370T
# B5: S371T (protein)
# chain: B1 chain with P370A, S371T
# B6: G375R (protein)
# chain: B1 chain with P370A, G375R
# B7: A377G (protein)
# chain: B1 chain with P370A, A377G
# B8: V376E (protein)
# chain: B1 chain with P370A, V376E
# B9: K374E (protein)
# chain: B1 chain with P370A, K374E
# B10: A370V (protein)
# chain: B1 chain with P370V
# B11: V376M (protein)
# chain: B1 chain with P370A, V376M
# B12: S371C (protein)
# chain: B1 chain with P370A, S371C
# B13: K374I (protein)
# chain: B1 chain with P370A, K374I
# B14: A377S (protein)
# chain: B1 chain with P370A, A377S
# B15: K374T (protein)
# chain: B1 chain with P370A, K374T
# B16: G373A (protein)
# chain: B1 chain with P370A, G373A
# B17: A377P (protein)
# chain: B1 chain with P370A, A377P
# B18: V376L (protein)
# chain: B1 chain with P370A, V376L
# B19: G373C (protein)
# chain: B1 chain with P370A, G373C
# What was measured:
# [1] = tested on: mutant form of α-Gal A expressed in HEK-293 cells; test: HEK assay (GLP HEK / Migalastat Amenability Assay): α-Gal A activity in lysates of transiently transfected HEK-293 cells incubated with or without 10 μM migalastat; type: cell-based, human; details: for Absolute increase (% WT) / Relative increase: 10 μM migalastat versus baseline; for Baseline α-Gal A activity (% WT): absence of migalastat; for Baseline α-Gal A activity (% WT) / 10 μM migalastat α-Gal A activity (% WT): percentage of baseline wild-type α-Gal A activity; for Baseline α-Gal A activity (% WT) / Baseline α-Gal A activity / 10 μM migalastat α-Gal A activity / 10 μM migalastat α-Gal A activity (% WT): mean ± SEM; for Baseline α-Gal A activity / 10 μM migalastat α-Gal A activity: lysates of HEK-293 cells transiently transfected with the mutant form; for Baseline α-Gal A activity: incubated 5 days in absence of migalastat; for 10 μM migalastat α-Gal A activity: incubated 5 days with 10 μM migalastat; for 10 μM migalastat α-Gal A activity (% WT): with 10 μM migalastat
# Procedure, shortened: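 Activity reported as 4-MU released (nmol/mg/hr), mean±SEM, from lysates of transiently transfected HEK-293 cells expressing mutant α-Gal A, cultured with or without 10 μM migalastat.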
# [2] = tested on: active site of wild-type α-Gal A and specific mutant forms of α-Gal A; details: selective and reversible binding; cited from earlier work
Molecule,"in vitro response to incubation with migalastat (amenability criteria) ([1]; novel α-Gal A mutations listed in Table 2, HEK-293 lysates, 10 μM migalastat, 5 days)",binding to the active site of α-Gal A [2],Absolute increase (% WT) [1] [% WT],Relative increase [1],Baseline α-Gal A activity (% WT) [1] [% WT],Baseline α-Gal A activity [1] [nmol/mg/h],10 μM migalastat α-Gal A activity [1] [nmol/mg/h],10 μM migalastat α-Gal A activity (% WT) ([1]; 5 days)
"OC[C@H]1NC[C@H](O)[C@@H](O)[C@H]1O [migalastat, (2R,3S,4R,5S)-2-(hydroxymethyl) piperdine-3,4,5-triol, reference compound]",met amenability criteria,high affinity,,,,,,
B1,,,16.9,1.5,33.9 ± 2.8,10431 ± 975,15618 ± 1776,50.7 ± 5.4
B2,,,17.9,1.2,74.3 ± 4.8,27984 ± 2321,34403 ± 2426,92.2 ± 4.9
B3,,,28.9,1.3,93.9 ± 4.6,33903 ± 2255,44774 ± 2982,122.9 ± 5.6
B4,,,17.6,1.2,79.9 ± 4.3,25024 ± 1951,30276 ± 2364,97.5 ± 6.1
B5,,,26.1,1.3,65 ± 3.3,27962 ± 2785,37065 ± 2351,91.1 ± 5
B6,,,18.7,1.4,41.7 ± 1.9,15302 ± 1157,22033 ± 1442,60.4 ± 2.1
B7,,,16.1,1.2,71.6 ± 2.5,26583 ± 1072,32517 ± 981,87.7 ± 2.3
B8,,,21.9,1.4,74 ± 4.6,22992 ± 924,30929 ± 1635,95.9 ± 3.8
B9,,,14.1,1.3,49.9 ± 3.6,19699 ± 1718,24879 ± 2423,64 ± 5.7
B10,,,20.6,1.5,40.1 ± 3.1,15754 ± 1222,24151 ± 1591,60.7 ± 3.5
B11,,,20.1,1.3,79.3 ± 2.7,27547 ± 1431,34563 ± 1762,99.4 ± 3.2
B12,,,11.1,1.4,23.5 ± 1.3,10189 ± 1078,14546 ± 1141,34.7 ± 1.6
B13,,,21.9,2.0,22.3 ± 1.3,8194 ± 506,16076 ± 936,44.2 ± 2.9
B14,,,13.7,1.3,48.1 ± 2.3,17737 ± 860,22793 ± 999,61.8 ± 2.7
B15,,,30.2,1.6,46.1 ± 2.8,16418 ± 1050,26614 ± 1659,76.2 ± 5.7
B16,,,12.4,1.3,40.8 ± 1.5,14426 ± 630,18622 ± 1289,53.2 ± 3.7
B17,,,17.2,1.3,59.4 ± 2.6,21842 ± 930,28189 ± 1292,76.6 ± 3.5
B18,,,19.9,1.3,82.4 ± 3.4,27275 ± 1181,34152 ± 1845,102.3 ± 4.2
B19,,,8.7,3.2,4.3 ± 0.2,1744 ± 92,5543 ± 547,13 ± 0.9
